# Laboratory results taken from US20150111251A1 (AbbVie / Abbott, published 2015).
# Positions count from the first letter of the chain named.
# B1: AB364 (antibody, V domains shown)
# VH: EVQLVQSGSELKKPGASVKVSCKASGYTFTNYGMNWVRQAPGQGLEWMGWINTYTGEPTYADDFKGRFVFSLDTSVSTAYLQISSLKAEDTAVYFCARKFLTTVVVTDYAMDYWGQGTTVTVSS
# VL: DIQMTQSPSSLSASVGDRVTITCRASQDISNYLNWYQQKPGKTVKLLIYYTSRLQSGVPSRFSGSGSGTDYTLTISSLQPEDFATYFCQQGNTLPPTFGQGTKLEIK
# notes: Full-length humanized antibody made in HEK 293-6E; also called hMAK199VH.1b/hMAK199VL.1a
# B2: AB365 (antibody, V domains shown)
# VH: B1 VH
# VL: B1 VL with T43A, V44P, F87Y
# notes: Full-length humanized antibody made in HEK 293-6E; also called hMAK199VH.1b/hMAK199VL.1b
# B3: AB377 (antibody, V domains shown)
# VH: EIQLVQSGAEVKKPGASVKVSCKASGYTFTNYGMNWVRQAPGQGLEWMGWINTYTGEPTYADDFKGRFTFTLDTSTSTAYMELSSLRSEDTAVYFCARKFLTTVVVTDYAMDYWGQGTTVTVSS
# VL: B1 VL with T43A, V44P, F87Y
# notes: Full-length humanized antibody made in HEK 293-6E; also called hMAK199VH.2a/hMAK199VL.1b
# B4: AB356 (antibody, V domains shown)
# VH: B1 VH with F95Y
# VL: DIVMTQSPAFLSVTPGEKVTITCRASQDISNYLNWYQQKPDQAPKLLIYYTSRLQSGVPSRFSGSGSGTDYTFTISSLEAEDAATYYCQQGNTLPPTFGQGTKLEIK
# notes: Full-length humanized antibody made in HEK 293-6E; also called hMAK199VH.1/hMAK199VL.2b
# B5: AB355 (antibody, V domains shown)
# VH: B1 VH with F95Y
# VL: B4 VL with A43T, P44V, Y87F
# notes: Full-length humanized antibody made in HEK 293-6E; also called hMAK199VH.1/hMAK199VL.2a
# B6: AB361 (antibody, V domains shown)
# VH: B1 VH with V2I
# VL: B4 VL with A43T, P44V, Y87F
# notes: Full-length humanized antibody made in HEK 293-6E; also called hMAK199VH.1a/hMAK199VL.2a
# B7: AB362 (antibody, V domains shown)
# VH: B1 VH with V2I
# VL: B4 VL
# notes: Full-length humanized antibody made in HEK 293-6E; also called hMAK199VH.1a/hMAK199VL.2b
# B8: AB367 (antibody, V domains shown)
# VH: B1 VH
# VL: B4 VL with A43T, P44V, Y87F
# notes: Full-length humanized antibody made in HEK 293-6E; also called hMAK199VH.1b/hMAK199VL.2a
# B9: AB368 (antibody, V domains shown)
# VH: B1 VH
# VL: B4 VL
# notes: Full-length humanized antibody made in HEK 293-6E; also called hMAK199VH.1b/hMAK199VL.2b
# B10: AB380 (antibody, V domains shown)
# VH: B3 VH
# VL: B4 VL
# notes: Full-length humanized antibody made in HEK 293-6E; also called hMAK199VH.2a/hMAK199VL.2b
# B11: AB369 (antibody, V domains shown)
# VH: B3 VH with I2V, F68V, F70M, L72T, F95Y
# VL: B1 VL with T43A, V44P, Y71F, F87Y
# notes: Full-length humanized antibody made in HEK 293-6E; also called hMAK199VH.2/hMAK199VL.1
# B12: AB370 (antibody, V domains shown)
# VH: B3 VH with I2V, F68V, F70M, L72T, F95Y
# VL: B1 VL
# notes: Full-length humanized antibody made in HEK 293-6E; also called hMAK199VH.2/hMAK199VL.1a
# B13: AB371 (antibody, V domains shown)
# VH: B3 VH with I2V, F68V, F70M, L72T, F95Y
# VL: B1 VL with T43A, V44P, F87Y
# notes: Full-length humanized antibody made in HEK 293-6E; also called hMAK199VH.2/hMAK199VL.1b
# B14: AB373 (antibody, V domains shown)
# VH: B3 VH with I2V, F68V, F70M, L72T, F95Y
# VL: B4 VL with A43T, P44V, Y87F
# notes: Full-length humanized antibody made in HEK 293-6E; also called hMAK199VH.2/hMAK199VL.2a
# B15: AB374 (antibody, V domains shown)
# VH: B3 VH with I2V, F68V, F70M, L72T, F95Y
# VL: B4 VL
# notes: Full-length humanized antibody made in HEK 293-6E; also called hMAK199VH.2/hMAK199VL.2b
# B16: AB375 (antibody, V domains shown)
# VH: B3 VH
# VL: B1 VL with T43A, V44P, Y71F, F87Y
# notes: Full-length humanized antibody made in HEK 293-6E; also called hMAK199VH.2a/hMAK199VL.1
# B17: AB376 (antibody, V domains shown)
# VH: B3 VH
# VL: B1 VL
# notes: Full-length humanized antibody made in HEK 293-6E; also called hMAK199VH.2a/hMAK199VL.1a
# B18: AB379 (antibody, V domains shown)
# VH: B3 VH
# VL: B4 VL with A43T, P44V, Y87F
# notes: Full-length humanized antibody made in HEK 293-6E; also called hMAK199VH.2a/hMAK199VL.2a
# B19: AB381 (antibody, V domains shown)
# VH: B3 VH with F68V, L72T, F95Y
# VL: B1 VL with T43A, V44P, Y71F, F87Y
# notes: Full-length humanized antibody made in HEK 293-6E; also called hMAK199VH.2b/hMAK199VL.1
# B20: AB382 (antibody, V domains shown)
# VH: B3 VH with F68V, L72T, F95Y
# VL: B1 VL
# notes: Full-length humanized antibody made in HEK 293-6E; also called hMAK199VH.2b/hMAK199VL.1a
# Target: T1, Recombinant Human TNF-α/TNFSF1A (human, UniProt P01375 77-233)
# T1 construct: also called hTNF-α; huTNFα
# Assay: SPR (BIACORE), antibody captured, TNFα in solution
# Description: The BIACORE assay (Biacore, Inc, Piscataway, N.J.) determines the affinity of antibodies with kinetic measurements of on-rate and off-rate constants. Binding of antibodies to a target antigen (for example, a purified recombinant target antigen) is determined by surface plasmon resonance-based measurements with a Biacore® 1000 or 3000 instrument (Biacore® AB, Uppsala, Sweden) using running HBS-EP (10 mM HEPES [pH 7.4], 150 mM NaCl, 3 mM EDTA, and 0.005% surfactant P20) at 25° C. All chemicals are obtained from Biacore® AB (Uppsala, Sweden) or otherwise from a different source as described. For example, approximately 5000 RU of goat anti-mouse IgG, (Fcγ), fragment specific polyclonal antibody (Pierce Biotechnology Inc, Rockford, Ill.) diluted in 10 mM sodium acetate (pH 4.5) is directly immobilized across a CM5 research grade biosensor chip using a standard amine coupling kit according to manufacturer's instructions and procedures at 25 μg/ml. Unreacted moieties on the biosensor surface are blocked with ethanolamine. Modified carboxymethyl dextran surface in flowcell 2 and 4 is used as a reaction surface. Unmodified carboxymethyl dextran without goat anti-mouse IgG in flow cell 1 and 3 is used as the reference surface. For kinetic analysis, rate equations derived from the 1:1 Langmuir binding model are fitted simultaneously to association and dissociation phases of all eight injections (using global fit analysis) with the use of Biaevaluation 4.0.1 software. Purified antibodies are diluted in HEPES-buffered saline for capture across goat anti-mouse IgG specific reaction surfaces. Antibodies to be captured as a ligand (25 μg/ml) are injected over reaction matrices at a flow rate of 5 μl/minute. The association and dissociation rate constants, kₒₙ (M⁻¹ s⁻¹) and koff (s⁻¹), are determined under a continuous flow rate of 25 μl/minute. Rate constants are derived by making kinetic binding measurements at different antigen concentrations ranging from 10-200 nM. The equilibrium dissociation constant (M) of the reaction between antibodies and the target antigen is then calculated from the kinetic rate constants by the following formula: KD=koff/kₒₙ. Binding is recorded as a function of time and kinetic rate constants are calculated. In this assay, on-rates as fast as 10⁶ M⁻¹ s⁻¹ and off-rates as slow as 10⁻⁶ s⁻¹ can be measured.
# T1 sequence (P01375 77-233 limits assumed): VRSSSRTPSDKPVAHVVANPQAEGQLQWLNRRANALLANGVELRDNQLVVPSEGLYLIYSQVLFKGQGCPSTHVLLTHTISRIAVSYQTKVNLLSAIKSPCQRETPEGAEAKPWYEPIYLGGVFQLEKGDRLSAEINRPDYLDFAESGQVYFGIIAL
Binder,Kd [nM],koff [s⁻¹],kon [M⁻¹ s⁻¹]
B1,0.89,0.0011,1.2e+06
B2,0.91,0.001,1.1e+06
B3,1.4,0.0015,1.1e+06
B4,0.67,0.00089,1.3e+06
B5,0.59,0.0014,2.4e+06
B6,0.79,0.00098,1.2e+06
B7,0.83,0.0011,1.3e+06
B8,1,0.001,1e+06
B9,1,0.0011,1.1e+06
B10,1.8,0.0015,820000
B11,1.1,0.001,940000
B12,1.1,0.0012,1e+06
B13,1.2,0.0017,1.5e+06
B14,1.2,0.0012,940000
B15,1.3,0.0015,1.2e+06
B16,1.3,0.0011,900000
B17,1.3,0.0014,1.1e+06
B18,1.8,0.0016,890000
B19,1.9,0.0017,860000
B20,2,0.0015,740000

# Target: T1, Recombinant Human TNF-α/TNFSF1A
# Assay: cell-based or functional assay
row,Binder,TNFα Neutralization Assay IC50 nM (L929 cells) [nM]
1,B1,0.35
2,B2,1.52
3,B3,> 20
4,B4,0.87
5,B5,1.9
6,B6,0.82
7,B7,2.11
8,B8,0.53
9,B9,1.09
10,B10,> 20
11,B11,> 20
12,B12,3.78
13,B13,> 20
14,B14,> 20
15,B15,> 20
16,B16,11.4
17,B17,3.65
18,B18,> 20
19,B19,5.9
20,B20,1.19
